The values that follow come from patent publication US20250011363A1, “OPTIMIZED SHORTENED PEPTIDE THAT BINDS TO ACETYLCHOLINE RECEPTOR, AND USE THEREOF” (SKINMED CO., LTD., priority 2021, published 2025).

The target of test [1] is acetylcholine receptor. As to the kind of experiment: SPR, AchR on CM5 chip, peptide 10 µM.
Test [2] addresses acetylcholine receptor. Briefly: SPR, acetylcholine receptor on CM5 chip, peptide at 10 uM.

In the case of RRAWPR [6mer-1-1159], the Binding affinity (RU) in the test with acetylcholine receptor [1] was found to be 39 RU.

For KKRLYR [6mer-1-591], the Binding affinity (RU) with acetylcholine receptor [2] amounted to 147 RU.

As to RKGVTK [6mer-1-590], in the test with acetylcholine receptor [2], the Binding affinity (RU) worked out at 142 RU.

Consider KKETPR [6mer-1-1142], for which, in the test with acetylcholine receptor [1], the Binding affinity (RU) stood at 24 RU.

KRWQQK [6mer-1-568]: the Binding affinity (RU) in the test with acetylcholine receptor [2] was 147 RU.

KRMSWK [6mer-1-1134] displayed a Binding affinity (RU) in the test with acetylcholine receptor [1] of 22 RU.

On to KKKEAK [6mer-1-1151], for which the Binding affinity (RU) with acetylcholine receptor [1] is 34 RU.

For the molecule RRCSHR [6mer-1-1148], the Binding affinity (RU) with acetylcholine receptor [1] was found to be 31 RU.

RKWLSK [6mer-1-598] gave a Binding affinity (RU) with acetylcholine receptor [2] of 142 RU.

Consider KRKWWR [6mer-1-1150], for which, in the test with acetylcholine receptor [1], the Binding affinity (RU) stood at 34 RU.

Molecule KKLYQR [6mer-1-599] displayed a Binding affinity (RU) with acetylcholine receptor [2] of 124 RU.

As to RKSRQK [6mer-1-585], the Binding affinity (RU) with acetylcholine receptor [2] was 144 RU.

As for KKSLQK [6mer-1-580], the Binding affinity (RU) with acetylcholine receptor [2] was found to be 121 RU.

In the test with acetylcholine receptor [2], KRVICK [6mer-1-586] showed a Binding affinity (RU) of 136 RU.

KRVLLK [6mer-1-572]: in the test with acetylcholine receptor [2], the Binding affinity (RU) amounted to 126 RU.

In turn, RRVITK [6mer-1-569] came in with a Binding affinity (RU) in the test with acetylcholine receptor [2] of 148 RU.

Molecule KRFTDK [6mer-1-1137] displayed a Binding affinity (RU) with acetylcholine receptor [1] of 33 RU.

In the test with acetylcholine receptor [2], KRSVRK [6mer-1-579] returned a Binding affinity (RU) of 148 RU.

In the case of KRGLYK [6mer-1-581], the Binding affinity (RU) with acetylcholine receptor [2] was determined as 139 RU.

The molecule KKSLCK [6mer-1-595] came in with a Binding affinity (RU) in the test with acetylcholine receptor [2] of 121 RU.

In turn, RKQVSK [6mer-1-584] yielded a Binding affinity (RU) with acetylcholine receptor [2] of 127 RU.

Consider RKPMMK [6mer-1-1158], for which the Binding affinity (RU) with acetylcholine receptor [1] was 33 RU.

Turning to KRDCFR [6mer-1-1138], in the test with acetylcholine receptor [1], the Binding affinity (RU) was 21 RU.

As for KKHTER [6mer-1-1135], the Binding affinity (RU) in the test with acetylcholine receptor [1] turned out to be 26 RU.

For KKQYQR [6mer-1-577], in the test with acetylcholine receptor [2], the Binding affinity (RU) amounted to 128 RU.

In turn, KRQLQR [6mer-1-594] gave a Binding affinity (RU) with acetylcholine receptor [2] of 121 RU.

KKQLLK [6mer-1-587]: the Binding affinity (RU) with acetylcholine receptor [2] was determined as 148 RU.

Turning to RRDWAK [6mer-1-1160], the Binding affinity (RU) in the test with acetylcholine receptor [1] is 29 RU.

Take RKVYLK [6mer-1-561]: the Binding affinity (RU) with acetylcholine receptor [2] worked out at 131 RU.

Regarding KKMMPK [6mer-1-1146], in the test with acetylcholine receptor [1], the Binding affinity (RU) was found to be 34 RU.

The molecule KRGYCR [6mer-1-600] returned a Binding affinity (RU) with acetylcholine receptor [2] of 139 RU.

RKVYRK [6mer-1-593] showed a Binding affinity (RU) with acetylcholine receptor [2] of 148 RU.

With RRWLSK [6mer-1-592], the Binding affinity (RU) with acetylcholine receptor [2] came to 135 RU.

For RKHNKK [6mer-1-1153], the Binding affinity (RU) with acetylcholine receptor [1] was 23 RU.

Molecule KKSFCR [6mer-1-566] returned a Binding affinity (RU) in the test with acetylcholine receptor [2] of 148 RU.

With RKAPHR [6mer-1-1147], in the test with acetylcholine receptor [1], the Binding affinity (RU) turned out to be 35 RU.

For the molecule KRWFLK [6mer-1-582], the Binding affinity (RU) in the test with acetylcholine receptor [2] is 137 RU.

With KRSITK [6mer-1-564], in the test with acetylcholine receptor [2], the Binding affinity (RU) is 139 RU.

For KKIEIK [6mer-1-1136], the Binding affinity (RU) with acetylcholine receptor [1] is 34 RU.

In turn, RRKAER [6mer-1-1132] gave a Binding affinity (RU) with acetylcholine receptor [1] of 31 RU.

RKMTPK [6mer-1-1149]: in the test with acetylcholine receptor [1], the Binding affinity (RU) worked out at 30 RU.

As for RKKEKR [6mer-1-1155], the Binding affinity (RU) with acetylcholine receptor [1] was 28 RU.

Regarding KRHEFK [6mer-1-1143], in the test with acetylcholine receptor [1], the Binding affinity (RU) came out at 32 RU.

In turn, KKLQQK [6mer-1-589] yielded a Binding affinity (RU) with acetylcholine receptor [2] of 139 RU.

With KKRVSR [6mer-1-567], the Binding affinity (RU) with acetylcholine receptor [2] was 136 RU.

In the test with acetylcholine receptor [1], RKYKEK [6mer-1-1152] showed a Binding affinity (RU) of 23 RU.

On to KKPNIK [6mer-1-1133], for which the Binding affinity (RU) with acetylcholine receptor [1] turned out to be 24 RU.

Turning to KRYTVR [6mer-1-1156], the Binding affinity (RU) with acetylcholine receptor [1] worked out at 37 RU.

For RRSFSK [6mer-1-560], in the test with acetylcholine receptor [2], the Binding affinity (RU) was determined as 127 RU.

KRHWVK [6mer-1-1161] returned a Binding affinity (RU) in the test with acetylcholine receptor [1] of 40 RU.

Consider KKCMGR [6mer-1-1144], for which, in the test with acetylcholine receptor [1], the Binding affinity (RU) was 25 RU.

Regarding RKGVLR [6mer-1-596], in the test with acetylcholine receptor [2], the Binding affinity (RU) was 148 RU.

In turn, KRSIRR [6mer-1-565] returned a Binding affinity (RU) with acetylcholine receptor [2] of 151 RU.

Molecule RKSYLR [6mer-1-574] returned a Binding affinity (RU) in the test with acetylcholine receptor [2] of 148 RU.

In the test with acetylcholine receptor [2], KRSYQR [6mer-1-562] came in with a Binding affinity (RU) of 148 RU.

Molecule RKGQYK [6mer-1-578] displayed a Binding affinity (RU) in the test with acetylcholine receptor [2] of 139 RU.

In the test with acetylcholine receptor [1], KKMENR [6mer-1-1139] gave a Binding affinity (RU) of 36 RU.

In the test with acetylcholine receptor [1], KRATMK [6mer-1-1140] displayed a Binding affinity (RU) of 43 RU.

RKCEKR [6mer-1-1154]: the Binding affinity (RU) with acetylcholine receptor [1] came to 41 RU.

In turn, KRNMHK [6mer-1-1141] showed a Binding affinity (RU) with acetylcholine receptor [1] of 40 RU.

In the test with acetylcholine receptor [2], KRVLLR [6mer-1-573] had a Binding affinity (RU) of 126 RU.

In the test with acetylcholine receptor [2], RKLLCK [6mer-1-571] showed a Binding affinity (RU) of 154 RU.

As to RRDCKK [6mer-1-1145], the Binding affinity (RU) with acetylcholine receptor [1] was determined as 40 RU.

RKRQRR [6mer-1-576]: in the test with acetylcholine receptor [2], the Binding affinity (RU) is 153 RU.

For KRGFYK [6mer-1-597], the Binding affinity (RU) with acetylcholine receptor [2] turned out to be 148 RU.

On to RKESVR [6mer-1-1157], for which the Binding affinity (RU) with acetylcholine receptor [1] was determined as 36 RU.

As for RRSFTR [6mer-1-563], the Binding affinity (RU) in the test with acetylcholine receptor [2] amounted to 139 RU.

In the test with acetylcholine receptor [2], RKRLRK [6mer-1-570] yielded a Binding affinity (RU) of 122 RU.

KKVLYK [6mer-1-583] gave a Binding affinity (RU) with acetylcholine receptor [2] of 139 RU.

For KRWVRR [6mer-1-575], the Binding affinity (RU) with acetylcholine receptor [2] is 148 RU.

In the test with acetylcholine receptor [2], RRLVRK [6mer-1-588] registered a Binding affinity (RU) of 153 RU.
